B1: Ribonuclease HI, P0A7Y4 (parent)
chain: MLKQVEIFTDGSCLGNPGPGGYGAILRYRGREKTFSAGYTRTTNNRMELMAAIVALEALKEHCEVILSTDSQYVRQGITQWIHNWKKRGWKTADKKPVKNVDLWQRLDAALGQHQIKWEWVKGHAGHPENERCDELARAAAMNPTLEDTGYQVEV

Variants of: B1
Settings: Escherichia coli (strain K12), CD, reversible: yes, structure 2RN2, whole UniProt chain shown
[1] = pH 3, 49.8 °C, Thermal, glycine-HCl 10 mM
[2] = pH 3, Thermal, glycine-HCl 10 mM
[3] = pH 5.5, 25 °C, Urea, Sodium acetate 10 mM, NaCl 0.1 M

| Variant | ddG of mutation (higher = less stable) [1] [kcal/mol] | Tm [2] [°C] | change of melting temperature, mutant - wild type (higher = more stable) [2] [°C] | unfolding enthalpy (van 't Hoff) [2] [kcal/mol] | ddG of mutation (higher = less stable) [3] [kcal/mol] | denaturant m value [3] [kcal/mol/M] | denaturant midpoint (higher = more stable) [3] [M] | unfolding free energy [3] [kcal/mol] |
| --- | --- | --- | --- | --- | --- | --- | --- | --- |
| S68L | 0.5 | 48.2 | -1.6 | 84 |  |  |  |  |
| S68T | 0.2 | 49.1 | -0.7 | 106 | -0.1 | 1.95 | 5 | 9.91 |
| S68V | -0.6 | 51.7 | 1.9 | 98.8 | -1.29 | 2.13 | 5.1 | 11.1 |
| S68A | 0.5 | 48.3 | -1.5 | 89 | -0.19 | 2.06 | 4.8 | 10 |
| S68G | 2.4 | 41.8 | -8 | 84.7 | 2.2 | 2 | 4 | 7.61 |

Source: FireProtDB (doi:10.1111/j.1432-1033.1992.tb16932.x)
